Target: C/EBPβ bZIP domain (mouse, UniProt P28033 221-296)
Assay: fluorescence polarization

Sequence of C/EBPβ bZIP domain (P28033 221-296): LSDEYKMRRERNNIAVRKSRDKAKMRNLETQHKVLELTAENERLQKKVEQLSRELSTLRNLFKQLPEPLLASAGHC

B1: FP_CREBmeth (half-CRE•C/EBP Il36A, methylated) (dsDNA)
DNA 1: CATCTTACGTCACCT
DNA 2: AGGTGACGTAAGATG
modifications: mC at strand 1 position 8 and strand 2 position 7 (CpG, both strands)
B1 was tested, and the Kd was 100 ± 30 nM.

Reference: doi:10.1101/2021.04.24.441265
